From article PMC6368843 (Biochemistry, 2016)
Changes are numbered by the printed parent chain. Names and notes keep the numbering of the source.

Assays:
[1] = molecular target: T1, Purβ FL (full-length NHis-Purβ) (Mus musculus, UniProt O35295); test: ssDNA-binding ELISA
T1 sequence (O35295 1-324): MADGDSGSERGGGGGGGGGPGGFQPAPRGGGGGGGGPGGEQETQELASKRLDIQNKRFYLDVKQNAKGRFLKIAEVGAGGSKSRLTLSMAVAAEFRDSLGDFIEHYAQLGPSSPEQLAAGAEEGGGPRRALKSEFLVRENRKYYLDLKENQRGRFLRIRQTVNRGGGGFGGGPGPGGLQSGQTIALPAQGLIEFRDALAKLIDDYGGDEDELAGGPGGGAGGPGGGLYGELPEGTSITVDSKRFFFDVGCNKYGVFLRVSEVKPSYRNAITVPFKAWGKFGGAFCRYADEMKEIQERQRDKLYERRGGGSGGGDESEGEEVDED

Purβ III = molecular target: T2, Purβ III (Mus musculus, UniProt O35295); test: ssDNA-binding ELISA
T2 sequence (O35295 209-303): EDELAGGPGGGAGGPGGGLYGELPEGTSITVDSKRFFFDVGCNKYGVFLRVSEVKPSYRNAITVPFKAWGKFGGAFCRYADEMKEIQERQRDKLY

Purβ I-II-III = molecular target: T3, Purβ I-II-III (Mus musculus, UniProt O35295); test: ssDNA-binding ELISA
T3 sequence (O35295 41-303): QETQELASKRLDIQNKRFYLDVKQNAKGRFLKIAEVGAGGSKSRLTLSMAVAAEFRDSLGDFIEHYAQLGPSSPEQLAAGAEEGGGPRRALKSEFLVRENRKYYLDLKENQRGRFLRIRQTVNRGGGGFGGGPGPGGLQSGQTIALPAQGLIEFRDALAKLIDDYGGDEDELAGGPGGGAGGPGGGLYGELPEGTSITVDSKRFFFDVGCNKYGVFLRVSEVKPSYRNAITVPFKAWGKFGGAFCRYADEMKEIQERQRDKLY

SEC = molecular target: the molecule itself; test: SEC
Purβ R267A = molecular target: T4, Purβ R267A (Mus musculus, UniProt O35295 1-324, R267A); test: ELISA
T4 sequence: T1 sequence (O35295 1-324) with R267A

[2] = molecular target: T5, Purβ FL (wild-type NHis-Purβ) (Mus musculus, UniProt O35295 1-324); test: ELISA
T5 sequence: T1 sequence (O35295 1-324)

Purβ R159A/R267A = molecular target: T6, Purβ R159A/R267A (Mus musculus, UniProt O35295 1-324, R159A;R267A); test: ELISA
T6 sequence: T1 sequence (O35295 1-324) with R159A, R267A

C[C@H](CCC(=O)O)[C@H]1CC[C@H]2[C@@H]3CC[C@@H]4C[C@H](O)CC[C@]4(C)[C@H]3C[C@H](O)[C@]12C [sodium deoxycholate]
IC50 [1]: 2360 µM | IC50 (Purβ III): 1450 µM | IC50 (Purβ I-II-III): 2030 µM

B1: Purβ K82A/R159A/R267A triple point mutant, N-terminally hexahistidine-tagged (natural protein, mouse, UniProt O35295 1-324, looked up)
chain: T1 sequence (O35295 1-324) with K82A, R159A, R267A
stoichiometry N (SEC): 2

B2: Purβ R267A single point mutant, N-terminally hexahistidine-tagged (natural protein, mouse, UniProt O35295 1-324, looked up)
chain: T1 sequence (O35295 1-324) with R267A
stoichiometry N (SEC): 2

B3: Purβ R159A/R267A double point mutant, N-terminally hexahistidine-tagged (natural protein, mouse, UniProt O35295 1-324, looked up)
chain: T1 sequence (O35295 1-324) with R159A, R267A
stoichiometry N (SEC): 2

GGGAGCAGAACAGAGGAATGCAGTGGAAGAGA (ssDNA) [PE32-bF]
Kd (Purβ R267A): 0.00057 ± 4e-05 µM | Kd [2]: 0.00017 ± 1e-05 µM | Kd (Purβ R159A/R267A): 0.0006 ± 4e-05 µM
